T1: PUF4 RNA-binding domain (Saccharomyces cerevisiae, UniProt P25339 537-888)
T1 sequence: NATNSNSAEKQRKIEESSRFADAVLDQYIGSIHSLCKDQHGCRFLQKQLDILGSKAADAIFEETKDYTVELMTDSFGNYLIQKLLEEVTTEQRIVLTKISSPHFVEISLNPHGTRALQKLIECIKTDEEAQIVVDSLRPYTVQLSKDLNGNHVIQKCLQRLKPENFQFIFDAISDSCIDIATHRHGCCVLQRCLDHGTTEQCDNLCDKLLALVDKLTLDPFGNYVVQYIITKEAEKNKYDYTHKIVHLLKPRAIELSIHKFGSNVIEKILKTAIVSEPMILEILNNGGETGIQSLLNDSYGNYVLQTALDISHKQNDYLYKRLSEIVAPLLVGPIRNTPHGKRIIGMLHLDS

B1: Ic_S4_P5E.1_K5.1_C5.1_H5.1_A5.1_[T5A]_[T6A]_[A7T]_F5.1_[T9C]_[A10T]_T5.1 (ssRNA)
RNA: UUUGACAACUGAUCGUUCUUUCUUGUAAAUUCUUUCUUUCUCGAUCAGUUGUCUUU
B2: Ic_S4_P5E.1_K5.1_C5.1_H5.1_A5.1_[T5C]_F5.1_[T8C]_[T9G]_[A10C]_T5.1 (ssRNA)
RNA: B1 RNA with A28C, A29U, U30A, U31C, C32G, U33C
B3: Ic_S4_P5E.1_K5.1_C5.1_H5.1_A5.1_[T5G]_[T6C]_[A7G]_F5.1_[T8C]_[T9G]_[A10T]_T5.1 (ssRNA)
RNA: B1 RNA with A28G, A29C, U30G, U31C, C32G
B4: Ic_S4_P5E.1_K5.1_C5.1_H5.1_A5.1_[T5A]_[T6C]_[A7C]_F5.1_[T9A]_[A10T]_T5.1 (ssRNA)
RNA: B1 RNA with A29C, U30C, C32A
B5: Ic_S4_P5E.1_K5.1_C5.1_H5.1_A5.1_[A7G]_F5.1_[T9C]_[A10T]_T5.1 (ssRNA)
RNA: B1 RNA with A28U, A29U, U30G
B6: Ic_S4_P5E.1_K5.1_C5.1_H5.1_A5.1_[T6C]_[A7C]_F5.1_[T8C]_[T9C]_[A10G]_T5.1 (ssRNA)
RNA: B1 RNA with A28U, A29C, U30C, U31C, U33G
B7: Ic_S4_P5E.1_K5.1_C5.1_H5.1_A5.1_[T5A]_[T6C]_[A7C]_F5.1_[T9A]_[A10G]_T5.1 (ssRNA)
RNA: B1 RNA with A29C, U30C, C32A, U33G
B8: Ic_S4_P5E.1_K5.1_C5.1_H5.1_A5.1_[T5C]_[T6G]_[A7T]_F5.1_[T8C]_[T9G]_[A10T]_T5.1 (ssRNA)
RNA: B1 RNA with A28C, A29G, U31C, C32G
B9: Ic_S4_P5E.1_K5.1_C5.1_H5.1_A5.1_[T5C]_F5.1_[T8C]_[T9A]_[A10C]_T5.1 (ssRNA)
RNA: B1 RNA with A28C, A29U, U30A, U31C, C32A, U33C
B10: Ic_S4_P5E.1_K5.1_C5.1_H5.1_A5.1_[T5A]_[T6A]_[A7C]_F5.1_[T8C]_[A10C]_T5.1 (ssRNA)
RNA: B1 RNA with U30C, U31C, C32U, U33C
B11: Ic_S4_P5E.1_K5.1_C5.1_H5.1_A5.1_[T5A]_[T6C]_F5.1_[T9G]_[A10C]_T5.1 (ssRNA)
RNA: B1 RNA with A29C, U30A, C32G, U33C
B12: Ic_S4_P5E.1_K5.1_C5.1_H5.1_A5.1_[T5A]_[A7T]_F5.1_[T8A]_[T9G]_[A10C]_T5.1 (ssRNA)
RNA: B1 RNA with A29U, U31A, C32G, U33C
B13: Ic_S4_P5E.1_K5.1_C5.1_H5.1_A5.1_[T5G]_[T6C]_[A7T]_F5.1_[A10T]_T5.1 (ssRNA)
RNA: B1 RNA with A28G, A29C, C32U
B14: Ic_S4_P5E.1_K5.1_C5.1_H5.1_A5.1_[T5A]_[T6C]_[A7T]_F5.1_[T8A]_[T9G]_[A10T]_T5.1 (ssRNA)
RNA: B1 RNA with A29C, U31A, C32G
B15: Ic_S4_P5E.1_K5.1_C5.1_H5.1_A5.1_[T5A]_F5.1_[A10G]_T5.1 (ssRNA)
RNA: B1 RNA with A29U, U30A, C32U, U33G
B16: Ic_S4_P5E.1_K5.1_C5.1_H5.1_A5.1_[T5A]_[T6A]_[A7C]_F5.1_[T9G]_[A10G]_T5.1 (ssRNA)
RNA: B1 RNA with U30C, C32G, U33G
B17: Ic_S4_P5E.1_K5.1_C5.1_H5.1_A5.1_[A7G]_F5.1_[T8G]_T5.1 (ssRNA)
RNA: B1 RNA with A28U, A29U, U30G, U31G, C32U, U33A
B18: Ic_S4_P5E.1_K5.1_C5.1_H5.1_A5.1_[T5G]_[A7C]_F5.1_[T8A]_[T9C]_[A10T]_T5.1 (ssRNA)
RNA: B1 RNA with A28G, A29U, U30C, U31A
B19: Ic_S4_P5E.1_K5.1_C5.1_H5.1_A5.1_[T5C]_[T6G]_[A7T]_F5.1_[T8G]_[T9C]_[A10C]_T5.1 (ssRNA)
RNA: B1 RNA with A28C, A29G, U31G, U33C
B20: Ic_S4_P5E.1_K5.1_C5.1_H5.1_A5.1_[T5A]_[T6A]_[A7T]_F5.1_[T8C]_[T9C]_[A10G]_T5.1 (ssRNA)
RNA: B1 RNA with U31C, U33G
B21: Ic_S4_P5E.1_K5.1_C5.1_H5.1_A5.1_[T5G]_[T6C]_[A7C]_F5.1_[T8C]_T5.1 (ssRNA)
RNA: B1 RNA with A28G, A29C, U30C, U31C, C32U, U33A

Numbering of substitutions follows the chain as printed. Names may count otherwise.

In the data set the target is T1, PUF4 RNA-binding domain. As to the kind of experiment: Mg; RNA-MaP; 20 mM Na-HEPES pH 7.4, 30 mM KOAc, 0.75 mM MgCl2, 0.1% Tween-20, 5% glycerol, 0.1 mg/mL BSA, 2 mM DTT; 25 C; 0.0125-409.6 nM protein. The settings on record: tags: N-His6-TEV cleaved; C-SNAP kept, Cy3B-labelled; label: tethered on chip by stalled RNA polymerase.
UCUCUUUGUAAAUUUUCUCUU (ssRNA) [Ic_S1_P4E.1_K4.1_C4.1_H4.1_A4.1_[T5A]_F4.1_[A9T]_T4.1] yielded a Kd of 18.3 nM. To UCUCUUUGUACAUUUUCUCUU (ssRNA) [Ic_S1_P4E.1_K4.1_C4.1_H4.1_A4.1_[T5C]_F4.1_[A9T]_T4.1] belongs 5.25 nM; to B1, 28.2 nM; to B2, 499 nM. Consider B3, for which the Kd turned out to be 1620 nM. In the case of B4, binding was put at a Kd of 5.91 nM. For B5 the value was 134 nM; for B6, 674 nM; for B7, 48.7 nM.

In turn, B8 returned a dissociation constant (Kd) of 167 nM.

For the molecule B9, the Kd worked out at 540 nM.

With B10, the Kd was 233 nM. For B11 the value was 25.7 nM; for B12, 338 nM; for B13, 34.7 nM. With B14, the Kd came to 586 nM.

Take B15: the Kd worked out at 24.3 nM.

Molecule B16 displayed a Kd of 280 nM.

Molecule B17 had a dissociation constant Kd of 58.8 nM. Regarding B18, the affinity, expressed as Kd, was 1040 nM. For B19, the Kd was found to be 125 nM. B20: the Kd is 254 nM. In the case of B21, the Kd was determined as 19.6 nM.

Values taken from article PMC9352680, “A comprehensive thermodynamic model for RNA binding by the Saccharomyces cerevisiae Pumilio protein PUF4”.
